B1: PIP5K1C peptide 642-657 (Phosphatidylinositol 4-phosphate 5-kinase type-1 gamma), 16-mer library wild type / TLN1 PTB (TLN1 Phosphotyrosine-binding (PTB) domain, residues 309-401) (parent complex)
chain 1: TDERSWVYSPLHYSAQ
chain 2: GVSFFLVKEKMKGKNKLVPRLLGITKECVMRVDEKTKEVIQEWNLTNIKRWAASPKSFTLDFGDYQDGYYSVQTTEGEQIAQLIAGYIDIILK
B2: CBL peptide 540-555 (E3 ubiquitin-protein ligase CBL), 16-mer library wild type / YES SH3 (YES1 SH3 domain, residues 90-152) (parent complex)
chain 1: RDLPPPPPPDRPYSVG
chain 2: not shown

Variants of: B1
Experiment: proteomic peptide phage display deep mutational scan (ProP-PD DMS): M13 P8 16-mer library selected against immobilised GST-tagged bait for four days (rounds), NGS of the eluted pools per day and pseudo-replica; bait immobilised on MaxiSorp plates (10 µg), library pre-cleared on GST, 2 h binding at 4 °C, five washes; one round per day, days 1-4; value from days 2 and 3
In the case of chain 1 D2G, the screen value is reported as 0.00241 average fractional NGS count over selection days 2 and 3 (reads of this peptide / all reads for the bait, averaged over ….
In the case of chain 1 S5Q, the screen value is reported as 0.000811 average fractional NGS count over selection days 2 and 3 (reads of this peptide / all reads for the bait, averaged over ….
With chain 1 W6F the screen value was 0.000288 average fractional NGS count over selection days 2 and 3 (reads of this peptide / all reads for the bait, averaged over ….

Variants of: B2
Experiment: as above
With chain 1 D2H the screen value was 0.000405 average fractional NGS count over selection days 2 and 3 (reads of this peptide / all reads for the bait, averaged over ….
With chain 1 Y13A the screen value was 0.00126 average fractional NGS count over selection days 2 and 3 (reads of this peptide / all reads for the bait, averaged over ….
In the case of chain 1 P7T, the screen value is reported as 0.00618 average fractional NGS count over selection days 2 and 3 (reads of this peptide / all reads for the bait, averaged over ….
With chain 1 D2Q the screen value was 0.00168 average fractional NGS count over selection days 2 and 3 (reads of this peptide / all reads for the bait, averaged over ….
In the case of chain 1 R1T, the screen value is reported as 0.000703 average fractional NGS count over selection days 2 and 3 (reads of this peptide / all reads for the bait, averaged over ….
chain 1 P6F was tested, and the screen value was 0.00211 average fractional NGS count over selection days 2 and 3 (reads of this peptide / all reads for the bait, averaged over ….
With chain 1 P5K the screen value was 0.0018 average fractional NGS count over selection days 2 and 3 (reads of this peptide / all reads for the bait, averaged over ….
In the case of chain 1 P7F, the screen value is reported as 0.00308 average fractional NGS count over selection days 2 and 3 (reads of this peptide / all reads for the bait, averaged over ….
chain 1 V15I was tested, and the screen value was 7.73e-05 average fractional NGS count over selection days 2 and 3 (reads of this peptide / all reads for the bait, averaged over ….
With chain 1 Y13L the screen value was 0.00594 average fractional NGS count over selection days 2 and 3 (reads of this peptide / all reads for the bait, averaged over ….
For chain 1 D10M, the screen value was 0.00163 average fractional NGS count over selection days 2 and 3 (reads of this peptide / all reads for the bait, averaged over ….
In the case of chain 1 P6Q, the screen value is reported as 0.000768 average fractional NGS count over selection days 2 and 3 (reads of this peptide / all reads for the bait, averaged over ….
For chain 1 V15W, the screen value was 0.0167 average fractional NGS count over selection days 2 and 3 (reads of this peptide / all reads for the bait, averaged over ….
In the case of chain 1 P8M, the screen value is reported as 0.00164 average fractional NGS count over selection days 2 and 3 (reads of this peptide / all reads for the bait, averaged over ….
In the case of chain 1 V15M, the screen value is reported as 0.00453 average fractional NGS count over selection days 2 and 3 (reads of this peptide / all reads for the bait, averaged over ….
With chain 1 R1L the screen value was 0.000379 average fractional NGS count over selection days 2 and 3 (reads of this peptide / all reads for the bait, averaged over ….
In the case of chain 1 R1F, the screen value is reported as 0.000504 average fractional NGS count over selection days 2 and 3 (reads of this peptide / all reads for the bait, averaged over ….
For chain 1 P6M, the screen value was 0.0066 average fractional NGS count over selection days 2 and 3 (reads of this peptide / all reads for the bait, averaged over ….
In the case of chain 1 P4E, the screen value is reported as 0.000136 average fractional NGS count over selection days 2 and 3 (reads of this peptide / all reads for the bait, averaged over ….
chain 1 P5R was tested, and the screen value was 0.00132 average fractional NGS count over selection days 2 and 3 (reads of this peptide / all reads for the bait, averaged over ….
chain 1 V15G was tested, and the screen value was 0.000446 average fractional NGS count over selection days 2 and 3 (reads of this peptide / all reads for the bait, averaged over ….
With chain 1 V15A the screen value was 0.00486 average fractional NGS count over selection days 2 and 3 (reads of this peptide / all reads for the bait, averaged over ….
In the case of chain 1 P8V, the screen value is reported as 0.0212 average fractional NGS count over selection days 2 and 3 (reads of this peptide / all reads for the bait, averaged over ….
chain 1 P9S was tested, and the screen value was 0.000868 average fractional NGS count over selection days 2 and 3 (reads of this peptide / all reads for the bait, averaged over ….
In the case of chain 1 P7R, the screen value is reported as 0.000229 average fractional NGS count over selection days 2 and 3 (reads of this peptide / all reads for the bait, averaged over ….
In the case of chain 1 L3A, the screen value is reported as 0.000233 average fractional NGS count over selection days 2 and 3 (reads of this peptide / all reads for the bait, averaged over ….
chain 1 D10H was tested, and the screen value was 0.00429 average fractional NGS count over selection days 2 and 3 (reads of this peptide / all reads for the bait, averaged over ….
In the case of chain 1 P12I, the screen value is reported as 0.00216 average fractional NGS count over selection days 2 and 3 (reads of this peptide / all reads for the bait, averaged over ….
With chain 1 D10F the screen value was 0.000931 average fractional NGS count over selection days 2 and 3 (reads of this peptide / all reads for the bait, averaged over ….
In the case of chain 1 P6E, the screen value is reported as 0.000208 average fractional NGS count over selection days 2 and 3 (reads of this peptide / all reads for the bait, averaged over ….
In the case of chain 1 L3W, the screen value is reported as 0.000182 average fractional NGS count over selection days 2 and 3 (reads of this peptide / all reads for the bait, averaged over ….
chain 1 P9A was tested, and the screen value was 0.00224 average fractional NGS count over selection days 2 and 3 (reads of this peptide / all reads for the bait, averaged over ….
For chain 1 P5M, the screen value was 0.00164 average fractional NGS count over selection days 2 and 3 (reads of this peptide / all reads for the bait, averaged over ….
With chain 1 L3F the screen value was 9.32e-05 average fractional NGS count over selection days 2 and 3 (reads of this peptide / all reads for the bait, averaged over ….
In the case of chain 1 R1P, the screen value is reported as 0.000732 average fractional NGS count over selection days 2 and 3 (reads of this peptide / all reads for the bait, averaged over ….
For chain 1 R11P, the screen value was 0.00145 average fractional NGS count over selection days 2 and 3 (reads of this peptide / all reads for the bait, averaged over ….
For chain 1 R11L, the screen value was 0.00999 average fractional NGS count over selection days 2 and 3 (reads of this peptide / all reads for the bait, averaged over ….
With chain 1 V15H the screen value was 0.00504 average fractional NGS count over selection days 2 and 3 (reads of this peptide / all reads for the bait, averaged over ….
With chain 1 L3K the screen value was 0.000147 average fractional NGS count over selection days 2 and 3 (reads of this peptide / all reads for the bait, averaged over ….
For chain 1 R11D, the screen value was 0.000209 average fractional NGS count over selection days 2 and 3 (reads of this peptide / all reads for the bait, averaged over ….
In the case of chain 1 S14M, the screen value is reported as 0.00137 average fractional NGS count over selection days 2 and 3 (reads of this peptide / all reads for the bait, averaged over ….
In the case of chain 1 P6A, the screen value is reported as 0.0119 average fractional NGS count over selection days 2 and 3 (reads of this peptide / all reads for the bait, averaged over ….
chain 1 P8E was tested, and the screen value was 0.00198 average fractional NGS count over selection days 2 and 3 (reads of this peptide / all reads for the bait, averaged over ….
For chain 1 P4L, the screen value was 0.000253 average fractional NGS count over selection days 2 and 3 (reads of this peptide / all reads for the bait, averaged over ….
With chain 1 P7M the screen value was 0.00246 average fractional NGS count over selection days 2 and 3 (reads of this peptide / all reads for the bait, averaged over ….
With chain 1 S14D the screen value was 0.000862 average fractional NGS count over selection days 2 and 3 (reads of this peptide / all reads for the bait, averaged over ….
For chain 1 P9Q, the screen value was 0.00144 average fractional NGS count over selection days 2 and 3 (reads of this peptide / all reads for the bait, averaged over ….
With chain 1 P7H the screen value was 0.00103 average fractional NGS count over selection days 2 and 3 (reads of this peptide / all reads for the bait, averaged over ….
For chain 1 S14R, the screen value was 6.61e-05 average fractional NGS count over selection days 2 and 3 (reads of this peptide / all reads for the bait, averaged over ….
With chain 1 P7G the screen value was 9.71e-05 average fractional NGS count over selection days 2 and 3 (reads of this peptide / all reads for the bait, averaged over ….
chain 1 P12H was tested, and the screen value was 0.00204 average fractional NGS count over selection days 2 and 3 (reads of this peptide / all reads for the bait, averaged over ….
In the case of chain 1 D10W, the screen value is reported as 0.00158 average fractional NGS count over selection days 2 and 3 (reads of this peptide / all reads for the bait, averaged over ….
With chain 1 P5Q the screen value was 0.00016 average fractional NGS count over selection days 2 and 3 (reads of this peptide / all reads for the bait, averaged over ….
In the case of chain 1 S14F, the screen value is reported as 0.0172 average fractional NGS count over selection days 2 and 3 (reads of this peptide / all reads for the bait, averaged over ….
In the case of chain 1 S14T, the screen value is reported as 0.0152 average fractional NGS count over selection days 2 and 3 (reads of this peptide / all reads for the bait, averaged over ….
chain 1 R11A was tested, and the screen value was 8.11e-05 average fractional NGS count over selection days 2 and 3 (reads of this peptide / all reads for the bait, averaged over ….
In the case of chain 1 P8K, the screen value is reported as 0.000519 average fractional NGS count over selection days 2 and 3 (reads of this peptide / all reads for the bait, averaged over ….
In the case of chain 1 D2I, the screen value is reported as 0.00123 average fractional NGS count over selection days 2 and 3 (reads of this peptide / all reads for the bait, averaged over ….
With chain 1 P8I the screen value was 0.000285 average fractional NGS count over selection days 2 and 3 (reads of this peptide / all reads for the bait, averaged over ….
chain 1 P4M was tested, and the screen value was 0.000259 average fractional NGS count over selection days 2 and 3 (reads of this peptide / all reads for the bait, averaged over ….
With chain 1 R11K the screen value was 0.000739 average fractional NGS count over selection days 2 and 3 (reads of this peptide / all reads for the bait, averaged over ….
With chain 1 P5I the screen value was 0.0162 average fractional NGS count over selection days 2 and 3 (reads of this peptide / all reads for the bait, averaged over ….
chain 1 D10A was tested, and the screen value was 0.00828 average fractional NGS count over selection days 2 and 3 (reads of this peptide / all reads for the bait, averaged over ….
With chain 1 R11M the screen value was 0.00776 average fractional NGS count over selection days 2 and 3 (reads of this peptide / all reads for the bait, averaged over ….
In the case of chain 1 P9L, the screen value is reported as 0.00194 average fractional NGS count over selection days 2 and 3 (reads of this peptide / all reads for the bait, averaged over ….
With chain 1 P9R the screen value was 0.000295 average fractional NGS count over selection days 2 and 3 (reads of this peptide / all reads for the bait, averaged over ….
With chain 1 P6Y the screen value was 0.000164 average fractional NGS count over selection days 2 and 3 (reads of this peptide / all reads for the bait, averaged over ….
For chain 1 P12Q, the screen value was 0.0162 average fractional NGS count over selection days 2 and 3 (reads of this peptide / all reads for the bait, averaged over ….
In the case of chain 1 S14I, the screen value is reported as 0.00339 average fractional NGS count over selection days 2 and 3 (reads of this peptide / all reads for the bait, averaged over ….
chain 1 P8L was tested, and the screen value was 0.000348 average fractional NGS count over selection days 2 and 3 (reads of this peptide / all reads for the bait, averaged over ….
With chain 1 P7A the screen value was 0.000371 average fractional NGS count over selection days 2 and 3 (reads of this peptide / all reads for the bait, averaged over ….
For chain 1 V15S, the screen value was 0.00131 average fractional NGS count over selection days 2 and 3 (reads of this peptide / all reads for the bait, averaged over ….

From article PMC12102759 (2025)
